The term Km denotes the concentration of substrate that gives half-maximal velocity. One may read the Vmax as the rate approached at saturating substrate.

In the series the test system is Cn1c(=O)ccc2ccc(F)c(CCNC[C@H]3CN(c4cnc5c(n4)NC(=O)CO5)C(=O)O3)c21. Description: MATE2-K transport in HEK293 cells. It is filed as in vitro ADME, human. The following applies: other: HEK293 cells; 37.0 °C.

As to MATE2-K (Homo sapiens), the Km is listed as 469 µM and the Vmax is given as 111 pmol/mg/min.
